Experimental data from patent US20230002478A1.

B1: antibody 202-03 (Fc fusion)
chain: EVQLVESGGGLVQPGGSLRLSCAASGFTFSPSWMGWFRQAPGKEREFVATINEYGGRNYADSVKGRFTISADNSKNTAYLQMNSLKPEDTAVYYCARVDRDFDYWGQGTLVTVSS
B2: 6-3 (Fc fusion)
chain: B1 chain
B3: antibody 339-031 (Fc fusion)
chain: EVQLVESGGGLVQPGGSLRLSCAASGSTFSINAMGWFRQAPGKEREFVAGITSSGGYTNYADSVKGRFTISADNSKNTAYLQMNSLKPEDTAVYYCAADGVPEYSDYASGPVWGQGTLVTVSS

Key:
Conditions in all cases: remark: other sources report otherwise
[1] = target: biotinylated D614G SARS-CoV-2 spike trimer (SARS-CoV-2), P0DTC2; assay: AlphaLISA, inhibition of ACE2-muFc / biotinylated spike complex
[2] = target: biotinylated SARS-CoV-2 spike RBD (Ancestral) (SARS-CoV-2), P0DTC2; assay: as above
[3] = target: S1 RBD fused to mouse Fc, Beta variant (SARS-CoV-2), P0DTC2; assay: flow cytometry: inhibition of S1 RBD-mFc binding to Vero E6 cells (ACE2)
[4] = target: SARS-CoV-2 S RBD (E484K) (SARS-CoV-2), P0DTC2; assay: SPR
[5] = target: SARS-CoV-2 S RBD (K417N) (SARS-CoV-2), P0DTC2; assay: SPR
[6] = target: SARS-CoV-2 S RBD (N439K) (SARS-CoV-2), P0DTC2; assay: SPR
[7] = target: SARS-CoV-2 S RBD (N501Y) (SARS-CoV-2), P0DTC2; assay: SPR
[8] = target: SARS-CoV-2 S RBD (Y453F) (SARS-CoV-2), P0DTC2; assay: SPR
[9] = target: SARS-CoV-2 S Trimer (SARS-CoV-2), P0DTC2; assay: SPR
[10] = target: SARS-CoV-2 S1 (D614G) (SARS-CoV-2), P0DTC2; assay: SPR
[11] = target: SARS-CoV-2 S1-Fc (South Africa 178-08) (SARS-CoV-2), P0DTC2; assay: SPR
[12] = target: biotinylated SARS-CoV-2 spike trimer, Delta (SARS-CoV-2), P0DTC2; assay: AlphaLISA, inhibition of ACE2-muFc / biotinylated spike complex
[13] = target: S1 RBD-mFc (Acro SPD-05259) (SARS-CoV-2), P0DTC2; assay: flow cytometry: inhibition of S1 RBD-mFc binding to Vero E6 cells (ACE2)

| Binder | IC50 [1] [nM] | IC50 [2] [nM] | IC50 [3] [nM] | Kd [4] [nM] | Kd [5] [nM] | Kd [6] [nM] | Kd [7] [nM] | Kd [8] [nM] | Kd [9] [nM] | Kd [10] [nM] | Kd [11] [nM] | IC50 [12] [nM] | IC50 [13] [nM] |
| --- | --- | --- | --- | --- | --- | --- | --- | --- | --- | --- | --- | --- | --- |
| B1 | 4 | 8.3 | 0.587 | – | – | – | – | – | – | – | – | – | – |
| B2 | – | – | – | 4.6 | 5.9 | 9.5 | 0.71 | 5.7 | 2.4 | 19 | 6.1 | – | – |
| B3 | 2.1 | 5.6 | > 100 | – | – | – | – | – | – | – | – | 3 | 1.25 |
